Results as given in US20220306695A1, “COMPSTATIN ANALOGUES AND THEIR MEDICAL USES” (priority 2019, published 2022).
Starred links: 1 amine or outer side, 2 acyl side, 3 side chain; linkers in the order of their positions; H or OH if unused. Positions of bridges follow the written chain, without caps; N, C: chain ends. Non-standard residues stand in square brackets, D forms with d. Groups on a side chain read outwards from the residue. *: point of attachment. C20 diacid = O=C(O)CCCCCCCCCCCCCCCCCCC(=O)*; Trp(1-Me) = Cn1cc(C[C@H](N)C(=O)O)c2ccccc21; C18 diacid = O=C(O)CCCCCCCCCCCCCCCCC(=O)*; C16 diacid = O=C(O)CCCCCCCCCCCCCCC(=O)*; γGlu = O=C(O)[C@H](CCC(=O)[*:2])N[*:1]; hCys = N[C@@H](CCS)C(=O)O; AEEA = NCCOCCOCC(=O)O; Sar = CNCC(=O)O

Molecular target: Human C3 (human, UniProt P01024 23-1663)
Sequence (P01024 23-1663 limits assumed): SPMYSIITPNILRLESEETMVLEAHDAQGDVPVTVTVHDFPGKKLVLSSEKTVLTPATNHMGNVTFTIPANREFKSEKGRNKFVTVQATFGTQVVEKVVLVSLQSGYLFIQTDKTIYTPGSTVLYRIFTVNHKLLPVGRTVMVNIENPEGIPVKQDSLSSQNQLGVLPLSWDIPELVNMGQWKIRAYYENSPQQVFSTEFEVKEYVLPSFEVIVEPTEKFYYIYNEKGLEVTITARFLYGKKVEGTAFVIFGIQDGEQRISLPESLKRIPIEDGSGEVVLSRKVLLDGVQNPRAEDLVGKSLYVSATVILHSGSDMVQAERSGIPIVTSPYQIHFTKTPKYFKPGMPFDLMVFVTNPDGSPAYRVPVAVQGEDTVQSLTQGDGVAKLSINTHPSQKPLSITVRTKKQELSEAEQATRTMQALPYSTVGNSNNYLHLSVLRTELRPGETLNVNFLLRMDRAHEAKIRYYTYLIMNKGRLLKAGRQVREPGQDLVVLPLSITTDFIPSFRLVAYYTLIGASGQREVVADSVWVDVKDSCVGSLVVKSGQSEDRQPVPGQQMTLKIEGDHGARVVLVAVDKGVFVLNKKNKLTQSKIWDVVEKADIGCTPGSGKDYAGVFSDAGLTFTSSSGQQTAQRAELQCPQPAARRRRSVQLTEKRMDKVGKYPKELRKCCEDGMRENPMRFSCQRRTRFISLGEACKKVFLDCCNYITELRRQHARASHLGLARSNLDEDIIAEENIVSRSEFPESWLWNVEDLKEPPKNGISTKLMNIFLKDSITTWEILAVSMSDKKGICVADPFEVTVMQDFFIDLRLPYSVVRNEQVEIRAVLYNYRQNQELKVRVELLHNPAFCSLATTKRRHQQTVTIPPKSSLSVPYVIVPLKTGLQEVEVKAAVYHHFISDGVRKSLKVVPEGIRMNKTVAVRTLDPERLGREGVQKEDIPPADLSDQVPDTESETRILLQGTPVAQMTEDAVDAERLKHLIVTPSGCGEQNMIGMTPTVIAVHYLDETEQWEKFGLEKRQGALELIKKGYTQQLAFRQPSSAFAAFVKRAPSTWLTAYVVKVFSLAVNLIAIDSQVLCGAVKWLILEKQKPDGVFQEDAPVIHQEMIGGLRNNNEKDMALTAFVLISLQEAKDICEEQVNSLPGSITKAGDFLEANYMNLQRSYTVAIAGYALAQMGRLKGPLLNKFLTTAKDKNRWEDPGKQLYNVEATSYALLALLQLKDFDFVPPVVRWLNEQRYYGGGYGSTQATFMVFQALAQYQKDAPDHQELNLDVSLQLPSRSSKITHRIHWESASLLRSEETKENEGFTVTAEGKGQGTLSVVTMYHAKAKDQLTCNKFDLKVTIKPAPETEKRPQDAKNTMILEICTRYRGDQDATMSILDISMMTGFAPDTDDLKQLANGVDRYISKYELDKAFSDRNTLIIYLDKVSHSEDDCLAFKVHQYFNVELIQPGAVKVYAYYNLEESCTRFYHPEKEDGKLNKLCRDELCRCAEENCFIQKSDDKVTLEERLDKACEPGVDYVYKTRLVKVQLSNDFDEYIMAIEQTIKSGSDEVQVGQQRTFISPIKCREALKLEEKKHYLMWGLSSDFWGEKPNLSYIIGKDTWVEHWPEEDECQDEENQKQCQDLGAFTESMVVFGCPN
Test: cell-based or functional assay

Binder	IC50[nM], inhibition of hemolysis [nM]
Ac-ICIWQDWGEHRCTEGK([AEEA-AEEA-γGlu-C20 diacid])-NH2 (disulfide 2-12; SMILES CC[C@H](C)[C@H](NC(C)=O)C(=O)N[C@H]1CSSC[C@@H](C(=O)N[C@H](C(=O)N[C@@H](CCC(=O)O)C(=O)NCC(=O)N[C@@H](CCCCNC(=O)COCCOCCNC(=O)COCCOCCNC(=O)CC[C@H](NC(=O)CCCCCCCCCCCCCCCCCCC(=O)O)C(=O)O)C(N)=O)[C@@H](C)O)NC(=O)[C@H](CCCNC(=N)N)NC(=O)[C@H](Cc2c[nH]cn2)NC(=O)[C@H](CCC(=O)O)NC(=O)CNC(=O)[C@H](Cc2c[nH]c3ccccc23)NC(=O)[C@H](CC(=O)O)NC(=O)[C@H](CCC(N)=O)NC(=O)[C@H](Cc2c[nH]c3ccccc23)NC(=O)[C@H]([C@@H](C)CC)NC1=O) [Compound 98]	< 500
{15‑Carboxy‑pentadecanoyl}-ESSAICIWQDWGEHRCTEGE-NH2 (disulfide 6-16) [Compound 99]	< 250
Ac-EGSAICIWQDWGEHRCTEGK([γGlu-C16 diacid])-NH2 (disulfide 6-16; SMILES CC[C@H](C)[C@H](NC(=O)[C@H](C)NC(=O)[C@H](CO)NC(=O)CNC(=O)[C@H](CCC(=O)O)NC(C)=O)C(=O)N[C@H]1CSSC[C@@H](C(=O)N[C@H](C(=O)N[C@@H](CCC(=O)O)C(=O)NCC(=O)N[C@@H](CCCCNC(=O)CC[C@H](NC(=O)CCCCCCCCCCCCCCC(=O)O)C(=O)O)C(N)=O)[C@@H](C)O)NC(=O)[C@H](CCCNC(=N)N)NC(=O)[C@H](Cc2c[nH]cn2)NC(=O)[C@H](CCC(=O)O)NC(=O)CNC(=O)[C@H](Cc2c[nH]c3ccccc23)NC(=O)[C@H](CC(=O)O)NC(=O)[C@H](CCC(N)=O)NC(=O)[C@H](Cc2c[nH]c3ccccc23)NC(=O)[C@H]([C@@H](C)CC)NC1=O) [Compound 101]	< 500
Ac-ICIWQDWGKHRCT-NH2 (disulfide 2-12; SMILES CC[C@H](C)[C@H](NC(C)=O)C(=O)N[C@H]1CSSC[C@@H](C(=O)N[C@H](C(N)=O)[C@@H](C)O)NC(=O)[C@H](CCCNC(=N)N)NC(=O)[C@H](Cc2c[nH]cn2)NC(=O)[C@H](CCCCN)NC(=O)CNC(=O)[C@H](Cc2c[nH]c3ccccc23)NC(=O)[C@H](CC(=O)O)NC(=O)[C@H](CCC(N)=O)NC(=O)[C@H](Cc2c[nH]c3ccccc23)NC(=O)[C@H]([C@@H](C)CC)NC1=O) [Compound 5]	< 250
Ac-SAYCI[Trp(1-Me)]QDWGEHRC[Sar]EK([γGlu-Gly-γGlu-C18 diacid])-NH2 (disulfide 4-14; SMILES CC[C@H](C)[C@@H]1NC(=O)[C@@H](NC(=O)[C@H](Cc2ccc(O)cc2)NC(=O)[C@H](C)NC(=O)[C@H](CO)NC(C)=O)CSSC[C@@H](C(=O)N(C)CC(=O)N[C@@H](CCC(=O)O)C(=O)N[C@@H](CCCCNC(=O)CC[C@H](NC(=O)CNC(=O)CC[C@H](NC(=O)CCCCCCCCCCCCCCCCC(=O)O)C(=O)O)C(=O)O)C(N)=O)NC(=O)[C@H](CCCNC(=N)N)NC(=O)[C@H](Cc2c[nH]cn2)NC(=O)[C@H](CCC(=O)O)NC(=O)CNC(=O)[C@H](Cc2c[nH]c3ccccc23)NC(=O)[C@H](CC(=O)O)NC(=O)[C@H](CCC(N)=O)NC(=O)[C@H](Cc2cn(C)c3ccccc23)NC1=O) [Compound 106]	< 250
Ac-EGSAFCI[Trp(1-Me)]QDWGEHRC[Sar]E-NH2 (disulfide 6-16; SMILES CC[C@H](C)[C@@H]1NC(=O)[C@@H](NC(=O)[C@H](Cc2ccccc2)NC(=O)[C@H](C)NC(=O)[C@H](CO)NC(=O)CNC(=O)[C@H](CCC(=O)O)NC(C)=O)CSSC[C@@H](C(=O)N(C)CC(=O)N[C@@H](CCC(=O)O)C(N)=O)NC(=O)[C@H](CCCNC(=N)N)NC(=O)[C@H](Cc2c[nH]cn2)NC(=O)[C@H](CCC(=O)O)NC(=O)CNC(=O)[C@H](Cc2c[nH]c3ccccc23)NC(=O)[C@H](CC(=O)O)NC(=O)[C@H](CCC(N)=O)NC(=O)[C@H](Cc2cn(C)c3ccccc23)NC1=O) [Compound 53]	< 100
Ac-SEFCI[Trp(1-Me)]QDWGEHRC[Sar]EGE[AEEA][AEEA]K([γGlu-Gly-γGlu-C18 diacid])-NH2 (disulfide 4-14) [Compound 123]	< 100
SEFCIWQDWGEHRAGEGEXXK (not fully specified; N-acetyl; C-terminal amide; gamma-cystathionine (Ctt1) thioether bridge hCys4-A14 (hCys written C); W6 is 1-Me-Trp; G15 is Sar; X19 and X20 are Peg3; K21 side chain bears [17-carboxy-heptadecanoyl][γGlu]G[γGlu]) [Compound 152]	< 100
Ac-SEYCI[Trp(1-Me)]QDWGEHRC[Sar]EGAK([AEEA-γGlu-AEEA-Gly-γGlu-C18 diacid])-NH2 (disulfide 4-14; SMILES CC[C@H](C)[C@@H]1NC(=O)[C@@H](NC(=O)[C@H](Cc2ccc(O)cc2)NC(=O)[C@H](CCC(=O)O)NC(=O)[C@H](CO)NC(C)=O)CSSC[C@@H](C(=O)N(C)CC(=O)N[C@@H](CCC(=O)O)C(=O)NCC(=O)N[C@@H](C)C(=O)N[C@@H](CCCCNC(=O)COCCOCCNC(=O)CC[C@H](NC(=O)COCCOCCNC(=O)CNC(=O)CC[C@H](NC(=O)CCCCCCCCCCCCCCCCC(=O)O)C(=O)O)C(=O)O)C(N)=O)NC(=O)[C@H](CCCNC(=N)N)NC(=O)[C@H](Cc2c[nH]cn2)NC(=O)[C@H](CCC(=O)O)NC(=O)CNC(=O)[C@H](Cc2c[nH]c3ccccc23)NC(=O)[C@H](CC(=O)O)NC(=O)[C@H](CCC(N)=O)NC(=O)[C@H](Cc2cn(C)c3ccccc23)NC1=O) [Compound 118]	< 100
Ac-SEFCI[Trp(1-Me)]QEWGEHRC[Sar]EGAK([AEEA-γGlu-AEEA-Gly-γGlu-C18 diacid])-NH2 (disulfide 4-14; SMILES CC[C@H](C)[C@@H]1NC(=O)[C@@H](NC(=O)[C@H](Cc2ccccc2)NC(=O)[C@H](CCC(=O)O)NC(=O)[C@H](CO)NC(C)=O)CSSC[C@@H](C(=O)N(C)CC(=O)N[C@@H](CCC(=O)O)C(=O)NCC(=O)N[C@@H](C)C(=O)N[C@@H](CCCCNC(=O)COCCOCCNC(=O)CC[C@H](NC(=O)COCCOCCNC(=O)CNC(=O)CC[C@H](NC(=O)CCCCCCCCCCCCCCCCC(=O)O)C(=O)O)C(=O)O)C(N)=O)NC(=O)[C@H](CCCNC(=N)N)NC(=O)[C@H](Cc2c[nH]cn2)NC(=O)[C@H](CCC(=O)O)NC(=O)CNC(=O)[C@H](Cc2c[nH]c3ccccc23)NC(=O)[C@H](CCC(=O)O)NC(=O)[C@H](CCC(N)=O)NC(=O)[C@H](Cc2cn(C)c3ccccc23)NC1=O) [Compound 120]	< 250
Ac-ICIWQKWGEHRCT-NH2 (disulfide 2-12; SMILES CC[C@H](C)[C@H](NC(C)=O)C(=O)N[C@H]1CSSC[C@@H](C(=O)N[C@H](C(N)=O)[C@@H](C)O)NC(=O)[C@H](CCCNC(=N)N)NC(=O)[C@H](Cc2c[nH]cn2)NC(=O)[C@H](CCC(=O)O)NC(=O)CNC(=O)[C@H](Cc2c[nH]c3ccccc23)NC(=O)[C@H](CCCCN)NC(=O)[C@H](CCC(N)=O)NC(=O)[C@H](Cc2c[nH]c3ccccc23)NC(=O)[C@H]([C@@H](C)CC)NC1=O) [Compound 7]	< 1000
Ac-SEFCI[Trp(1-Me)]QDWGEHRC[Sar]EGE[AEEA][AEEA]K([γGlu-Gly-γGlu-C20 diacid])-NH2 (disulfide 4-14, also called comp 128) [Compound 128]	< 100
Ac-ICIWQKWGAHRCTGAES-NH2 (disulfide 2-12; SMILES CC[C@H](C)[C@H](NC(C)=O)C(=O)N[C@H]1CSSC[C@@H](C(=O)N[C@H](C(=O)NCC(=O)N[C@@H](C)C(=O)N[C@@H](CCC(=O)O)C(=O)N[C@@H](CO)C(N)=O)[C@@H](C)O)NC(=O)[C@H](CCCNC(=N)N)NC(=O)[C@H](Cc2c[nH]cn2)NC(=O)[C@H](C)NC(=O)CNC(=O)[C@H](Cc2c[nH]c3ccccc23)NC(=O)[C@H](CCCCN)NC(=O)[C@H](CCC(N)=O)NC(=O)[C@H](Cc2c[nH]c3ccccc23)NC(=O)[C@H]([C@@H](C)CC)NC1=O) [Compound 8]	< 500
SEFAIWQDWGEHRCTEGEXESK (not fully specified; N-acetyl; C-terminal amide; delta-cystathionine (Ctt2) thioether bridge A4-hCys14 (hCys written C); W6 is 1-Me-Trp; X19 is Peg3; K22 side chain bears [17-carboxy-heptadecanoyl][γGlu]) [Compound 148]	< 100
Ac-SEF[hCys]I[Trp(1-Me)]QDW[Sar]EHRA[Sar]EGE[AEEA]ESK([γGlu-Gly-γGlu-C18 diacid])-NH2 (thioether 4-14; SMILES CC[C@H](C)[C@@H]1NC(=O)[C@@H](NC(=O)[C@H](Cc2ccccc2)NC(=O)[C@H](CCC(=O)O)NC(=O)[C@H](CO)NC(C)=O)CCSC[C@@H](C(=O)N(C)CC(=O)N[C@@H](CCC(=O)O)C(=O)NCC(=O)N[C@@H](CCC(=O)O)C(=O)NCCOCCOCC(=O)N[C@@H](CCC(=O)O)C(=O)N[C@@H](CO)C(=O)N[C@@H](CCCCNC(=O)CC[C@H](NC(=O)CNC(=O)CC[C@H](NC(=O)CCCCCCCCCCCCCCCCC(=O)O)C(=O)O)C(=O)O)C(N)=O)NC(=O)[C@H](CCCNC(=N)N)NC(=O)[C@H](Cc2c[nH]cn2)NC(=O)[C@H](CCC(=O)O)NC(=O)CN(C)C(=O)[C@H](Cc2c[nH]c3ccccc23)NC(=O)[C@H](CC(=O)O)NC(=O)[C@H](CCC(N)=O)NC(=O)[C@H](Cc2cn(C)c3ccccc23)NC1=O) [Compound 166]	< 100
Ac-YCIWQDWGEHRCT-NH2 (disulfide 2-12; SMILES CC[C@H](C)[C@@H]1NC(=O)[C@@H](NC(=O)[C@H](Cc2ccc(O)cc2)NC(C)=O)CSSC[C@@H](C(=O)N[C@H](C(N)=O)[C@@H](C)O)NC(=O)[C@H](CCCNC(=N)N)NC(=O)[C@H](Cc2c[nH]cn2)NC(=O)[C@H](CCC(=O)O)NC(=O)CNC(=O)[C@H](Cc2c[nH]c3ccccc23)NC(=O)[C@H](CC(=O)O)NC(=O)[C@H](CCC(N)=O)NC(=O)[C@H](Cc2c[nH]c3ccccc23)NC1=O) [Compound 9]	< 100
